First the molecules themselves.
T1: APBA1_2, Q02410
T1 sequence (Q02410 742-832, limits assumed, looked up): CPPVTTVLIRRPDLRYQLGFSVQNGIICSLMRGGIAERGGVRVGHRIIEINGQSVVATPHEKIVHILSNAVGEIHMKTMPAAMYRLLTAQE

T2: APBA2_2, Q99767
T2 sequence (Q99767 654-744, limits assumed, looked up): T1 sequence (Q02410 742-832, limits assumed, looked up) with R10K, R15K, P59A, H65Q, I66A, A70S, Y84F, A89G

T3: ARHGAP21, Q5T5U3
T3 sequence (Q5T5U3 45-169, limits assumed, looked up): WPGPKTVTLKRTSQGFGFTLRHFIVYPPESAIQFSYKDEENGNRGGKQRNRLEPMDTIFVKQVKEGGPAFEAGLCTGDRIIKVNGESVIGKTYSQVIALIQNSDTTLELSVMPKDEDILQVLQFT

T4: GRIP1_5, Q9Y3R0
T4 sequence (Q9Y3R0 568-668, limits assumed, looked up): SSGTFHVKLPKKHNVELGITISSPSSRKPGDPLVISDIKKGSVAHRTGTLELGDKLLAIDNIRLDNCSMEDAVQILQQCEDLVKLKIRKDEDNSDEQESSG

T5: LIN7B, Q9HAP6
T5 sequence (Q9HAP6 88-185, limits assumed, looked up): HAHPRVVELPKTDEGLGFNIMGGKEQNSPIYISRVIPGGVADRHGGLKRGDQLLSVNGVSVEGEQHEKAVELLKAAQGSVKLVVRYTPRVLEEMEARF

T6: MPDZ_5, O75970
T6 sequence (O75970 695-796, limits assumed, looked up): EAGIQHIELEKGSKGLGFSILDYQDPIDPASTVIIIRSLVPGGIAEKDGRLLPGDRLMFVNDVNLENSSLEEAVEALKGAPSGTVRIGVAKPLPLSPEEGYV

T7: MPP2, Q14168
T7 sequence (Q14168 180-250, limits assumed, looked up): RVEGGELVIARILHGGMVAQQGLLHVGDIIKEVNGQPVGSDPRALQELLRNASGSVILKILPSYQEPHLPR

T8: MPP7, Q5T2T1
T8 sequence (Q5T2T1 134-230, limits assumed, looked up): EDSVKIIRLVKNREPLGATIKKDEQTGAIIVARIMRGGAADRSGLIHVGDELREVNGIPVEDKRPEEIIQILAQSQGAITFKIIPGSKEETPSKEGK

T9: NHERF3_3, Q5T2W1
T9 sequence (Q5T2W1 238-333, limits assumed, looked up): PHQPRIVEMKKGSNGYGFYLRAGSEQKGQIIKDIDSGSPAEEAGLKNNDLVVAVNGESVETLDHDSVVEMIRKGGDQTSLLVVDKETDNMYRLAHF

T10: NHERF3_4, Q5T2W1
T10 sequence (Q5T2W1 373-468, limits assumed, looked up): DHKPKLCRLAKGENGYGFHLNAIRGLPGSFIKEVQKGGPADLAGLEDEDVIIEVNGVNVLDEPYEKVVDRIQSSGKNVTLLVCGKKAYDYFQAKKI

T11: PDZD7_3, Q9H5P4
T11 sequence (Q9H5P4 857-944, limits assumed, looked up): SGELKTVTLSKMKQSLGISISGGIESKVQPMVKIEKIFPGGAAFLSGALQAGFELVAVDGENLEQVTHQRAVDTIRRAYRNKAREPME

T12: SIPA1L2, Q9P2F8
T12 sequence (Q9P2F8 945-1036, limits assumed, looked up): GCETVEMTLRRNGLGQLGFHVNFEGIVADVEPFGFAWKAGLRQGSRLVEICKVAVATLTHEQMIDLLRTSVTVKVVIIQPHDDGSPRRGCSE

T13: SNTB1, Q13884
T13 sequence (Q13884 107-205, limits assumed, looked up): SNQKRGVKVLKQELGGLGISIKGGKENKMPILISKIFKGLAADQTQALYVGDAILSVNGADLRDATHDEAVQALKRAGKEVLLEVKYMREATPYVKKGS

T14: TX1BP3, O14907
T14 sequence (O14907 10-122, limits assumed, looked up): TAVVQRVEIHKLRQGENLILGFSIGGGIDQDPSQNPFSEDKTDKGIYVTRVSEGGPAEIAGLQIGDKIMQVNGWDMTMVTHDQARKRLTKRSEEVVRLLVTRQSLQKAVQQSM

B1: ZSCAN30, Q86W11 (peptide)
chain: MQHQRTHTRV
B2: SCN8A, Q9UQD0 (peptide)
chain: RQKEVRESKC

Positions count from the first letter of the chain named.

GRIP2_4, Q9C0E4, sequence (Q9C0E4 446-548): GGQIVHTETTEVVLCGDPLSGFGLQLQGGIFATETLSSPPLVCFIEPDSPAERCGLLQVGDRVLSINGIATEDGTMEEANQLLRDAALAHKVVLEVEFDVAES
FRMPD2_2, Q68DX3, sequence (Q68DX3 944-1038): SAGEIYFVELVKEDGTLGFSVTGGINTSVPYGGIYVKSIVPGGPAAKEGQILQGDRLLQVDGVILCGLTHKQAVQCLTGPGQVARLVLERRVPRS
MAGI2_6, Q86UL8, sequence (Q86UL8 1141-1229): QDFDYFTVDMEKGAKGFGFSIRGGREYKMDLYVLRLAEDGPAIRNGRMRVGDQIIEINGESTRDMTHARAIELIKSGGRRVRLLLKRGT
MAST2, Q6P0Q8, sequence (Q6P0Q8 1099-1202): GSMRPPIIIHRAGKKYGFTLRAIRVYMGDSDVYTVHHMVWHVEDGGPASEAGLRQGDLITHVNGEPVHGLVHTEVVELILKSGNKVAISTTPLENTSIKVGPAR
ARHGEF12, Q9NZN5-2, sequence (Q9NZN5 other isoform, or with tags, fused parts or gaps): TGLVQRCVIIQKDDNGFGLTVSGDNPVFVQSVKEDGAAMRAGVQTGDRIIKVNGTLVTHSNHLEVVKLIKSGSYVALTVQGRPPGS

For one assay, the target named is T1, APBA1_2, Q02410. As to the kind of experiment: holdup assay. The arrangement: key: below the threshold = too weak to quantify, mostly under pKd 3.1 to 4. To be noted: plain residues with an end cap or a label only (N-terminal biotin on a linker: ado-ado).
B1 showed a pKd of 3.52.

Consider B2, for which the pKd entry is given as “below the threshold”.

A further assay deals with T2, APBA2_2, Q99767. Description: holdup assay. The arrangement: key: below the threshold = too weak to quantify, mostly under pKd 3.1 to 4. To be noted: plain residues with an end cap or a label only (N-terminal biotin on a linker: ado-ado).
Regarding B1, the pKd result was “below the threshold”.

On to B2, for which the negative-log Kd (pKd) result is recorded as “below the threshold”.

The next assay concerns the target T3, ARHGAP21, Q5T5U3. Description: holdup assay. As to conditions: plain residues with an end cap or a label only (N-terminal biotin on a linker: ado-ado). The arrangement: key: below the threshold = too weak to quantify, mostly under pKd 3.1 to 4.
On to B1, for which the pKd stood at 3.92.

As to B2, the pKd result was “below the threshold”.

Another assay has as its target ARHGEF12, Q9NZN5-2. Description: holdup assay. Also noted: key: below the threshold = too weak to quantify, mostly under pKd 3.1 to 4. To be noted: plain residues with an end cap or a label only (N-terminal biotin on a linker: ado-ado).
For B1, the pKd was 3.96.

On to B2, for which the pKd came out at 3.64.

The target of another assay is CASK, O14936. Description: holdup assay. Also noted: key: below the threshold = too weak to quantify, mostly under pKd 3.1 to 4. As to conditions: plain residues with an end cap or a label only (N-terminal biotin on a linker: ado-ado).
CASK, O14936, sequence (O14936 487-570): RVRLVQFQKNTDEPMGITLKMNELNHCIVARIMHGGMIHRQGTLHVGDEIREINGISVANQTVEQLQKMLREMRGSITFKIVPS
B1: the negative logarithm of the Kd (pKd) result is reported as “below the threshold”.

Regarding B2, the pKd result is reported as “below the threshold”.

The target of the next assay is DLG4_1, P78352. As to the kind of experiment: holdup assay. As to conditions: plain residues with an end cap or a label only (N-terminal biotin on a linker: ado-ado). Also noted: key: below the threshold = too weak to quantify, mostly under pKd 3.1 to 4.
DLG4_1, P78352, sequence (P78352 62-152): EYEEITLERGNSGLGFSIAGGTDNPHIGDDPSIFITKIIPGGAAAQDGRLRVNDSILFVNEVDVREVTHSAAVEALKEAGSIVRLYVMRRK
B1: the pKd worked out at 4.59.

B2: the pKd entry is “below the threshold”.

A further assay has as its target FRMPD2_2, Q68DX3. Description: holdup assay. The arrangement: key: below the threshold = too weak to quantify, mostly under pKd 3.1 to 4. As to conditions: plain residues with an end cap or a label only (N-terminal biotin on a linker: ado-ado).
Regarding B1, the pKd entry is reported as “below the threshold”.

Turning to B2, the pKd entry is given as “below the threshold”.

A further assay deals with T4, GRIP1_5, Q9Y3R0. Description: holdup assay. As to conditions: plain residues with an end cap or a label only (N-terminal biotin on a linker: ado-ado). Also noted: key: below the threshold = too weak to quantify, mostly under pKd 3.1 to 4.
Turning to B1, the pKd entry was “below the threshold”.

In the case of B2, the pKd entry is listed as “below the threshold”.

A further assay has as its target GRIP2_4, Q9C0E4. As to the kind of experiment: holdup assay. The arrangement: key: below the threshold = too weak to quantify, mostly under pKd 3.1 to 4. To be noted: plain residues with an end cap or a label only (N-terminal biotin on a linker: ado-ado).
Take B1: the pKd result is “below the threshold”.

On to B2, for which the pKd result is recorded as “below the threshold”.

The target of a further assay is Inadl_4, Q8NI35. Description: holdup assay. The arrangement: key: below the threshold = too weak to quantify, mostly under pKd 3.1 to 4. To be noted: plain residues with an end cap or a label only (N-terminal biotin on a linker: ado-ado).
Inadl_4, Q8NI35, sequence (Q8NI35 547-651): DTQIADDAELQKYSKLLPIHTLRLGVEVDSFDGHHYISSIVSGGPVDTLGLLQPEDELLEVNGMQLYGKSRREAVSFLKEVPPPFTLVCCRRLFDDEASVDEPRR
As to B1, the pKd entry is “below the threshold”.

As for B2, the negative logarithm of the Kd (pKd) entry is “below the threshold”.

The next assay deals with T5, LIN7B, Q9HAP6. As to the kind of experiment: holdup assay. Also noted: key: below the threshold = too weak to quantify, mostly under pKd 3.1 to 4. As to conditions: plain residues with an end cap or a label only (N-terminal biotin on a linker: ado-ado).
For the molecule B1, the pKd result is given as “below the threshold”.

B2 had a pKd of 3.78.

Another assay addresses MAGI2_6, Q86UL8. As to the kind of experiment: holdup assay. The arrangement: key: below the threshold = too weak to quantify, mostly under pKd 3.1 to 4. As to conditions: plain residues with an end cap or a label only (N-terminal biotin on a linker: ado-ado).
Regarding B1, the pKd entry is “below the threshold”.

For the molecule B2, the pKd result is recorded as “below the threshold”.

The next assay addresses MAST2, Q6P0Q8. As to the kind of experiment: holdup assay. To be noted: plain residues with an end cap or a label only (N-terminal biotin on a linker: ado-ado). Also noted: key: below the threshold = too weak to quantify, mostly under pKd 3.1 to 4.
On to B1, for which the pKd was 5.21.

In the case of B2, the pKd stood at 4.82.

Another assay concerns the target T6, MPDZ_5, O75970. As to the kind of experiment: holdup assay. Also noted: key: below the threshold = too weak to quantify, mostly under pKd 3.1 to 4. To be noted: plain residues with an end cap or a label only (N-terminal biotin on a linker: ado-ado).
B1: the pKd result was “below the threshold”.

Take B2: the negative logarithm of the Kd (pKd) entry is recorded as “below the threshold”.

The target of a further assay is T7, MPP2, Q14168. As to the kind of experiment: holdup assay. Also noted: key: below the threshold = too weak to quantify, mostly under pKd 3.1 to 4. To be noted: plain residues with an end cap or a label only (N-terminal biotin on a linker: ado-ado).
Consider B1, for which the pKd result is given as “below the threshold”.

Take B2: the pKd entry is “below the threshold”.

For a further assay, the target named is T8, MPP7, Q5T2T1. Description: holdup assay. Also noted: key: below the threshold = too weak to quantify, mostly under pKd 3.1 to 4. As to conditions: plain residues with an end cap or a label only (N-terminal biotin on a linker: ado-ado).
For the molecule B1, the pKd result is reported as “below the threshold”.

Regarding B2, the pKd result is on record as “below the threshold”.

Another assay addresses T9, NHERF3_3, Q5T2W1. As to the kind of experiment: holdup assay. The arrangement: key: below the threshold = too weak to quantify, mostly under pKd 3.1 to 4. As to conditions: plain residues with an end cap or a label only (N-terminal biotin on a linker: ado-ado).
B1 showed a pKd of 3.64.

For the molecule B2, the pKd entry was “below the threshold”.

The next assay deals with T10, NHERF3_4, Q5T2W1. As to the kind of experiment: holdup assay. The arrangement: key: below the threshold = too weak to quantify, mostly under pKd 3.1 to 4. As to conditions: plain residues with an end cap or a label only (N-terminal biotin on a linker: ado-ado).
The molecule B1 had a pKd of 3.51.

In the case of B2, the pKd entry is “below the threshold”.

For a further assay, the target named is PDLIM1, O00151. As to the kind of experiment: holdup assay. Also noted: key: below the threshold = too weak to quantify, mostly under pKd 3.1 to 4. To be noted: plain residues with an end cap or a label only (N-terminal biotin on a linker: ado-ado).
PDLIM1, O00151, sequence (O00151 1-87): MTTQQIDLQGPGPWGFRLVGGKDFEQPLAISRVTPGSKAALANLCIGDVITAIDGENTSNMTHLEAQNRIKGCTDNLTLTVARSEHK
Consider B1, for which the pKd entry is listed as “below the threshold”.

As to B2, the pKd entry is “below the threshold”.

A further assay has as its target T11, PDZD7_3, Q9H5P4. As to the kind of experiment: holdup assay. Also noted: key: below the threshold = too weak to quantify, mostly under pKd 3.1 to 4. To be noted: plain residues with an end cap or a label only (N-terminal biotin on a linker: ado-ado).
Take B1: the pKd came to 4.37.

Take B2: the pKd is 3.85.

The target in another assay is PTPN3, P26045. As to the kind of experiment: holdup assay. The arrangement: key: below the threshold = too weak to quantify, mostly under pKd 3.1 to 4. As to conditions: plain residues with an end cap or a label only (N-terminal biotin on a linker: ado-ado).
PTPN3, P26045, sequence (P26045 505-587): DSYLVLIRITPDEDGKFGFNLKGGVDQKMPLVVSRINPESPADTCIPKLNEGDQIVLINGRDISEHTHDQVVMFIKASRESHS
In the case of B1, the pKd entry is recorded as “below the threshold”.

The molecule B2 showed a pKd of 4.6.

The next assay concerns the target T12, SIPA1L2, Q9P2F8. As to the kind of experiment: holdup assay. The arrangement: key: below the threshold = too weak to quantify, mostly under pKd 3.1 to 4. To be noted: plain residues with an end cap or a label only (N-terminal biotin on a linker: ado-ado).
Turning to B1, the pKd entry is reported as “below the threshold”.

For the molecule B2, the pKd result was “below the threshold”.

In another assay the target is T13, SNTB1, Q13884. As to the kind of experiment: holdup assay. Also noted: key: below the threshold = too weak to quantify, mostly under pKd 3.1 to 4. As to conditions: plain residues with an end cap or a label only (N-terminal biotin on a linker: ado-ado).
B1 gave a negative logarithm of the Kd (pKd) of 4.15.

Consider B2, for which the pKd was 4.99.

A further assay addresses T14, TX1BP3, O14907. Description: holdup assay. The arrangement: key: below the threshold = too weak to quantify, mostly under pKd 3.1 to 4. To be noted: plain residues with an end cap or a label only (N-terminal biotin on a linker: ado-ado).
Turning to B1, the pKd amounted to 3.57.

B2: the pKd is 3.96.

These data come from publication PMC9482650, “Quantitative fragmentomics allow affinity mapping of interactomes” (Nature Communications, 2022).
